Reference: patent publication US20220396632A1 (VERSEAU THERAPEUTICS, published 2022)
Blank lines part the entries; values can stand above or below the binder they belong to. Non-standard residues stand in square brackets, D forms with d. No end group written: not given here. *: point of attachment. Biotin = O=C1N[C@H]2[C@H](CS[C@H]2CCCCC(=O)*)N1; sY = N[C@@H](Cc1ccc(OS(=O)(=O)O)cc1)C(=O)O

Columns and labels:
[1] = biological target: T1, Recombinant human PSGL-1(ECD)-hFc1 (R&D Systems, Cat. 3345-PS) (human, UniProt Q14242 42-305); assay: Octet tandem; competitor 15A7
T1 construct: Bought; Gln42-Val295 counted on AAC50061; also called PSGL-1-Fc; PSGL-1-hFc1 chimera; not shown: human IgG1 Fc, Pro100-Lys330
T1 sequence: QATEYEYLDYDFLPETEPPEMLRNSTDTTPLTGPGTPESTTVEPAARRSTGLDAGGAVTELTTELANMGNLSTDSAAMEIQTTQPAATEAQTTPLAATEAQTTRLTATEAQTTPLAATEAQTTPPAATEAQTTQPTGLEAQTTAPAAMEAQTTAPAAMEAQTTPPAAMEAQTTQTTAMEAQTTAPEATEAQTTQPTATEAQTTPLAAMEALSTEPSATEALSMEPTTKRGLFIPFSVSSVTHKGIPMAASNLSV
Protocol: (§1) Antibody binning was performed by ForteBio Octet® using a tandem assay format, with anti-human IgG biosensor-immobilized PSGL-1(ECD)-hFc1 protein, binding of competitor mAb followed by analyte antibody. As competition controls, the same antibody was competed against itself, and mAb competition was performed bidirectionally.
(§2) Antibody binning by tandem octet was performed by immobilizing 10 ug/mL PSGL-1(ECD)-hFc1 (R&D Systems, Cat. #3345-PS) in PBS, pH 7.4, onto anti-human IgG capture biosensors (ForteBio, Cat. #18-5060), binding of 100 nM competitor antibody for 300 sec., followed by binding of 100 nM of analyte mAb for 300 s in kinetic buffer (0.1% BSA in PBS containing 0.02% tween 20 and 0.05% sodium azide, pH 7.4). Synagis (Johnson et al. (1997) J. Infect. Dis. 176:1215-1224) served as a negative control mAb for competition. An Fc quench step (0.25 mg/mL human IgG Fcl; BioXcell, Cat. #BE0096, in kinetic buffer) was included when human mAbs were tested to prevent high background from the antibodies binding to the anti-human IgG biosensor. Biosensor regeneration buffer consisted of 10 mM glycine, pH 2.0.

[2] = biological target: T1, Recombinant human PSGL-1(ECD)-hFc1 (R&D …); assay: Octet tandem; competitor 16E17
Protocol: as §1, §2

[3] = biological target: T1, Recombinant human PSGL-1(ECD)-hFc1 (R&D …); assay: Octet tandem; competitor 18F17
Protocol: as §1, §2

[4] = biological target: T1, Recombinant human PSGL-1(ECD)-hFc1 (R&D …); assay: Octet tandem; competitor 18K07
Protocol: as §1, §2

[5] = biological target: T1, Recombinant human PSGL-1(ECD)-hFc1 (R&D …); assay: Octet tandem; competitor 19J23
Protocol: as §1, §2

[6] = biological target: T1, Recombinant human PSGL-1(ECD)-hFc1 (R&D …); assay: Octet tandem; competitor 19L04
Protocol: as §1, §2

[7] = biological target: T1, Recombinant human PSGL-1(ECD)-hFc1 (R&D …); assay: Octet tandem; competitor 19N05
Protocol: as §1, §2

[8] = biological target: T1, Recombinant human PSGL-1(ECD)-hFc1 (R&D …); assay: Octet tandem; competitor 20G13
Protocol: as §1, §2

[9] = biological target: T2, Biotin PSGL-1(290-310) peptide (human, N-terminal acetyl; C-terminal Lys-biotin); assay: ELISA; against WT PSGL-1(ECD)-hFc1
T2 peptide: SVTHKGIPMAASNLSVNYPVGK
Protocol: (§3) A typical ELISA experiment involved binding of a single concentration or serially diluted mAb in assay buffer (3% BSA in PBS containing 0.05% Tween®20, pH 7.4) onto BSA blocked high binding microtiter plate half-wells (Corning Cat. #3690), which contained PSGL-1 protein or streptavidin-immobilized biotin peptide. After incubation for 45 min. at 37° C., the plate was washed 3 times with wash buffer (PBS containing 0.05% Tween®20, pH 7.4), and an appropriate HRP-conjugated secondary antibody added (25 ul/well) (HRP goat anti-mouse or anti-human IgG). After 45 min. incubation at 37° C., the plate was washed and antibody bound to plate-immobilized target was determined at A450 nm using HRP substrate (3,3′5,5′-tetramethylbenzidine (TMB)). For each antibody, duplicate values were averaged and assay background subtracted.

[10] = biological target: PSGL-1(ECD)-hFc1 S116A protein (Sino Biological) (human); assay: ELISA; against WT PSGL-1(ECD)-hFc1
Protocol: as §3

[11] = biological target: PSGL-1(ECD)-hFc1 M119A protein (Sino Biological) (human); assay: ELISA; against WT PSGL-1(ECD)-hFc1
Protocol: as §3

[12] = biological target: PSGL-1(ECD)-hFc1 I121A protein (Sino Biological) (human); assay: ELISA; against WT PSGL-1(ECD)-hFc1
Protocol: as §3

[13] = biological target: T2, Biotin PSGL-1(290-310) peptide; assay: ELISA, plate-bound peptide or protein
Protocol: as §3

[14] = biological target: PSGL-1(ECD)-hFc1 S116A protein (Sino Biological) (human); assay: ELISA, plate-bound peptide or protein
Protocol: as §3

[15] = biological target: PSGL-1(ECD)-hFc1 M119A protein (Sino Biological) (human); assay: ELISA, plate-bound peptide or protein
Protocol: as §3

[16] = biological target: PSGL-1(ECD)-hFc1 I121A protein (Sino Biological) (human); assay: ELISA, plate-bound peptide or protein
Protocol: as §3

Human PSGL-1(ECD)-HIS = biological target: T3, Human PSGL-1(ECD)-HIS (human, UniProt Q14242 42-319); assay: ELISA, plate-immobilized protein
T3 construct: also called Human PSGL-1-His
T3 sequence: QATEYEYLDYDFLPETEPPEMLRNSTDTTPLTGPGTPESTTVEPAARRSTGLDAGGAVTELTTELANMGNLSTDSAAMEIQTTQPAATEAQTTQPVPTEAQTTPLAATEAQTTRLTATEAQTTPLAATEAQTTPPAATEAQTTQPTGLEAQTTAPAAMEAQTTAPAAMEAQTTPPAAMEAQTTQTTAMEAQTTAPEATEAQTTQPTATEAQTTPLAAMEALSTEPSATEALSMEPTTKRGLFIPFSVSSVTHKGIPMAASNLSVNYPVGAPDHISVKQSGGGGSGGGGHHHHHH

42-80 = biological target: T4, 42-80 (C-terminal Lys-biotin); assay: ELISA, streptavidin-immobilized biotin peptide
T4 construct: also called Biotin PSGL-1(42-80) peptide
T4 peptide: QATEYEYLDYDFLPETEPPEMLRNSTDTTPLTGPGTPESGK
Protocol: as §3

[17] = biological target: T5, Biotin PSGL-1(105-125) peptide (human, N-terminal acetyl; C-terminal Lys-biotin); assay: ELISA, streptavidin-immobilized biotin peptide
T5 peptide: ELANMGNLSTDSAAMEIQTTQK
Protocol: as §3

[18] = biological target: T6, Biotin PSGL-1(42-62) peptide, unmodified (human, C-terminal Lys-biotin); assay: ELISA, streptavidin-immobilized biotin peptide
T6 construct: Residues 42-62 followed by GGGK-biotin; also called WT; wild-type
T6 peptide: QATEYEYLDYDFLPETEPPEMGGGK
Protocol: as §3

[19] = biological target: T7, PSGL-1(42-62) N-terminal peptide, sulfation state not told at the place (human, not fully specified; sulfation of Y46, Y48, Y51 not stated for these table columns); assay: mAb binding to PSGL-1(42-62)
T7 peptide: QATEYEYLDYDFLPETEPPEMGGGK

[20] = biological target: T1, Recombinant human PSGL-1(ECD)-hFc1 (R&D …); assay: blocking ELISA vs L-selectin-Fc
Protocol: (§4) A typical selectin blocking ELISA assay involved coating high binding half-well plates (Corning, Cat. #3690) with 2.5 ug/mL/25 ul per well of recombinant PSGL-1-Fc protein (R&D Systems, Cat #3345-PS) in PBS, pH 7.4, overnight at 4° C. […] Antibody (test and controls) was serially diluted (25 ul/well) in duplicate in assay buffer (3% BSA in wash buffer) into appropriate wells and the plate incubated for 45 min at 37° C. […] The plate was washed ×3 and HRP-conjugated streptavidin was added in assay buffer [25 ul per well; (Jackson Immunoresearch, Cat. #016-030-084)] and the plate incubated for 45 min at 37° C. […] For each antibody, an IC50 value was determined from sigmoidal fitted titration curves.

[21] = biological target: T1, Recombinant human PSGL-1(ECD)-hFc1 (R&D …); assay: blocking ELISA vs P-selectin-Fc
Protocol: as §4

[22] = biological target: T1, Recombinant human PSGL-1(ECD)-hFc1 (R&D …); assay: blocking ELISA vs VISTA-Fc, pH 6.0
[23] = biological target: T5, Biotin PSGL-1(105-125) peptide; assay: ELISA; against WT PSGL-1(ECD)-hFc1
Protocol: as §3

[24] = biological target: T5, Biotin PSGL-1(105-125) peptide; assay: ELISA, plate-bound peptide or protein
Protocol: as §3

[25] = biological target: T8, Sulfotyrosine CCR2b biotin peptide (human); assay: ELISA, plate-bound peptide
T8 construct: also called CCR2b peptide
T8 peptide: TTFFD[sY]D[sY]GAPSHGGK(Biotin)

[26] = biological target: T9, Biotin Y46,48,51(SO3) PSGL-1(42-62) peptide (human, sulfotyrosine at Y46, Y48 and Y51; C-terminal Lys-biotin); assay: ELISA, plate-bound peptide
T9 construct: also called fully sulfated N-terminal PSGL-1 peptide
T9 peptide: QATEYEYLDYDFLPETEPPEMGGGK

[27] = biological target: T1, Recombinant human PSGL-1(ECD)-hFc1 (R&D …); assay: ELISA, plate-immobilized protein

Chain of PSGL-1(ECD)-hFc1 I121A protein (Sino Biological) (human) (chain, as listed by the source I121A I121A): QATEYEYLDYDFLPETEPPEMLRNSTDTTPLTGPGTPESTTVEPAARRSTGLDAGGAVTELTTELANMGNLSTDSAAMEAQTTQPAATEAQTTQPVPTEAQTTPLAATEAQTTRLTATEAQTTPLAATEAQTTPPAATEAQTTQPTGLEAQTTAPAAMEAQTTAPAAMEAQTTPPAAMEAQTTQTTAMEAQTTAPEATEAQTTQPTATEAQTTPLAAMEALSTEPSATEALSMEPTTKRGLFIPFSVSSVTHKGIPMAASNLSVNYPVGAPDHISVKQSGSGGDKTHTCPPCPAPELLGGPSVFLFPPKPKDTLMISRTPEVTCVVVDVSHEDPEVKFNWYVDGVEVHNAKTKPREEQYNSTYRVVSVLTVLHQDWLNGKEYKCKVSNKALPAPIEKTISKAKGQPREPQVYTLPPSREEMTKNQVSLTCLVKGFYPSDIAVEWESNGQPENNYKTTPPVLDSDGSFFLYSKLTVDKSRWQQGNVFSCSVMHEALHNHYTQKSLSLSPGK
Chain of PSGL-1(ECD)-hFc1 S116A protein (Sino Biological) (human) (chain, as listed by the source S116A S116A): as the sequence (chain, as listed by the source I121A I121A) above, with S75A, A80I counted along it

% binding of analyte mAb [1]: 61.9%
% binding of analyte mAb [2]: 124%
% binding of analyte mAb [3]: 28.2%
% binding of analyte mAb [4]: 90.7%
% binding of analyte mAb [5]: 26.9%
% binding of analyte mAb [6]: 68.7%
% binding of analyte mAb [7]: 84.2%
% binding of analyte mAb [8]: 22%
EC50/EC50WTprot [9]: < 1 fold
EC50/EC50WTprot [10]: 0.67 fold
EC50/EC50WTprot [11]: 0.74 fold
EC50/EC50WTprot [12]: 0.68 fold
EC50 [13]: < 0.5 nM
EC50 [14]: 0.54 nM
EC50 [15]: 0.6 nM
EC50 [16]: 0.55 nM
EC50 (read off the curve) (Human PSGL-1(ECD)-HIS): ~0.7 nM
binding result (42-80): no binding (tested: 10 nM)
binding result [17]: no binding (tested: 10 nM)
binding result [18]: no binding (tested: 10 nM)
B1: 18F17 (antibody, V domains shown)
VH: QVTLKESGPGILQPSQTLSLTCSFSGFSLSTFGMGVGWIRQPSGKGLEWLAHIWWDDDKYYNPALKSRLTISKDTSKNQVFLKIANVDTADTATYYCAIYYDYGVGFDYWGQGTTLTVSS
VL: DIVMTQAAPSVPVTPGESVSISCRSSKSLLHSNGYTFLYWFLQRPGQSPQLLIYRMSNLASGVPDRFSGSGSGTAFTLRISRVEAEDVGVYYCMQHLEYPFTFGTGTKLEIK
notes: Non-functional anti-PSGL-1 mAb (Verseau); only variable domains given

binding result [19]: no binding
% binding of analyte mAb [1]: 28.3%
% binding of analyte mAb [2]: 56.2%
% binding of analyte mAb [3]: 86.6%
% binding of analyte mAb [4]: 91.5%
% binding of analyte mAb [5]: 94.3%
% binding of analyte mAb [6]: 48%
% binding of analyte mAb [7]: 46.2%
% binding of analyte mAb [8]: 15.1%
% max Block [20]: 0%
% max Block [21]: 0%
% max Block [22]: 0%
EC50/EC50WTprot [23]: 7.18 fold
EC50/EC50WTprot [10]: 0.78 fold
EC50/EC50WTprot [11]: ~30 fold
EC50/EC50WTprot [12]: ~60 fold
EC50 [24]: 4.31 nM
EC50 [14]: 0.25 nM
EC50 [15]: ~10 nM
EC50 [16]: ~20 nM
B2: 15A7 (antibody, V domains shown)
VH: EVQLVESGGGLVQPGGSLRLSCAASGFTFSSFGMHWVRQAPGKGLEWVAYINGGSSTIFYANAVKGRFTISRDNAKNTLYLQMNSLRAEDTAVYYCARYASYGGGAMDYWGQGTLVTVSS
VL: DIQMTQSPSSLSASVGDRVTITCRSSQSIVHNDGNTYFEWYQQKPGKAPKLLIYKVSNRFSGVPSRFSGSGSGTHFTLTISSLQPEDFATYYCFQGSYVPLTFGQGTKVEIK
notes: Control mAb, recombinant; also called h15A7; 15A17

binding result [25]: no binding (tested: 20 nM)
EC50 [26]: 0.71 nM
B3: 06G08 (antibody, IgG4, V domains shown)
VH: EVKLLESGGGVVQPGGSLRLSCAVSGFTFSNYAMHWVRQAPGKGLEWVAVISFDGSNKYTADSVQGRFTISRDNSKNTLYLQMNSLTPEDTAVYYCASRIIRTVAGGDYWGQGTLVTVSS
VL: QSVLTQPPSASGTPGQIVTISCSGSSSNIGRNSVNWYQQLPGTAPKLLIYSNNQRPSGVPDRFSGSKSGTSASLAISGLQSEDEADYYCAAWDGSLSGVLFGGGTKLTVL

% binding of analyte mAb [1]: 84.9%
% binding of analyte mAb [2]: 93.3%
% binding of analyte mAb [3]: 52.1%
% binding of analyte mAb [4]: 100%
% binding of analyte mAb [5]: 29.2%
% binding of analyte mAb [6]: 68.9%
% binding of analyte mAb [7]: 76.6%
% binding of analyte mAb [8]: 55.9%
EC50/EC50WTprot [9]: 3.1 fold
EC50 [13]: 2.19 nM
EC50 (read off the curve) (Human PSGL-1(ECD)-HIS): ~0.9 nM
B4: 19J23 (antibody, V domains shown)
VH: EVKLVESGGGLVQPGGSLSLSCAASGFTFTDYYMSWVRQPPGKALEWLALIRNKANGYTTEYSASVKGRFTISRDDSQSILYLQVNALRAEDVATYYCARPWDYWGQGTTLTVSS
VL: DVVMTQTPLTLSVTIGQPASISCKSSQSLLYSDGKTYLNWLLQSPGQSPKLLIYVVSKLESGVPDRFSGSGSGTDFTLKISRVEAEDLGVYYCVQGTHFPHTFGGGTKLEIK
notes: as for B1
binding result [27]: no binding (tested: Log M -7.4 (about 40 nM))
